In patent US20110104176A1 (SAMSUNG ELECTRONICS, published 2011):
Each block holds one molecule with its values, some of them ahead of it.

Tests used:
[1] = target: mouse c-Met/Fc fusion protein (R&D Systems) (mouse) (UniProt P16056); assay: ELISA, c-Met/Fc coated at 2 ug/ml, goat anti-mouse IgG-HRP, OPD
[2] = target: human c-Met/Fc fusion protein (R&D Systems) (human) (UniProt P08581); assay: as above
[3] = target: T1, human c-Met protein (immobilized on a CM5 chip) (human, UniProt P08581 25-932, limits assumed); assay: SPR (Biacore), human c-Met immobilized on a CM5 chip, antibody in flow
Experimental: (§1) A surface plasmon resonance (SPR) device (Biacore) was used to measure the binding affinity of the monoclonal antibody AbF46 prepared in Example 1 to human c-Met protein. The human c-Met protein was first immobilized on a CM5 chip, and the monoclonal antibody AbF46 was allowed to flow into a microfluidic chamber to obtain kₐ (on) and kb (off) values as illustrated in FIG. 2. Then, the Kd value was calculated from the kₐ and kb values. […] In addition, the Chi² value, which represents the reliability of the experiment, was 0.822 (in a Biacore analysis method, a Chi² value of 1 or less indicates high reliability of the data).

[4] = target: T1, human c-Met protein (immobilized on a …); assay: SPR (Biacore), human c-Met immobilized on a CM5 chip, AbF46 flowed over
Experimental: as §1

T1 sequence (P08581 25-932 limits assumed): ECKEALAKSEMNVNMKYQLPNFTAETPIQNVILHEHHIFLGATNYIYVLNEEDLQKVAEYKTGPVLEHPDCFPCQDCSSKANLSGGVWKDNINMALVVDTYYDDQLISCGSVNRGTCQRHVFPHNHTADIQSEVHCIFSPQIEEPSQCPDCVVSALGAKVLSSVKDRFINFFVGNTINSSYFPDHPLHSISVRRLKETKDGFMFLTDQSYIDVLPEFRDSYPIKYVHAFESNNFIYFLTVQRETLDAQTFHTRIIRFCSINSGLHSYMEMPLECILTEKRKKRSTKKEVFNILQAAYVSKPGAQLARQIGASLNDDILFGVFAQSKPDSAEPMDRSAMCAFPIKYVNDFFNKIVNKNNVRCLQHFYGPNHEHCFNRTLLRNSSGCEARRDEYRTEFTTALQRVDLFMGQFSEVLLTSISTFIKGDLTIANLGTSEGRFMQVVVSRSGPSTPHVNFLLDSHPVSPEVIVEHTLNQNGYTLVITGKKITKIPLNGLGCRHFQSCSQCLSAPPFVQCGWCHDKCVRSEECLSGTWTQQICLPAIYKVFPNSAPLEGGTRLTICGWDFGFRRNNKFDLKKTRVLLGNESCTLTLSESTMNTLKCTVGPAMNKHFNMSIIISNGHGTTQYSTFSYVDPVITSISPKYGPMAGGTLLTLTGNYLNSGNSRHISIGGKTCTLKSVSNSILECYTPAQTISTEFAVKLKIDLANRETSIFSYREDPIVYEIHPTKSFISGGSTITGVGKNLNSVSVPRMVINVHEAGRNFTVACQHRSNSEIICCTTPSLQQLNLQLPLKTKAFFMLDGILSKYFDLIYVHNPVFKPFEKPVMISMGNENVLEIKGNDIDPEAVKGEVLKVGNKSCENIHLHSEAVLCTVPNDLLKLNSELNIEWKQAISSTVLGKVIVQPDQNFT
Chain of human c-Met/Fc fusion protein (R&D Systems) (human) (P08581 25-932 limits assumed): as above
Chain of mouse c-Met/Fc fusion protein (R&D Systems) (mouse) (P16056 25-931 limits assumed): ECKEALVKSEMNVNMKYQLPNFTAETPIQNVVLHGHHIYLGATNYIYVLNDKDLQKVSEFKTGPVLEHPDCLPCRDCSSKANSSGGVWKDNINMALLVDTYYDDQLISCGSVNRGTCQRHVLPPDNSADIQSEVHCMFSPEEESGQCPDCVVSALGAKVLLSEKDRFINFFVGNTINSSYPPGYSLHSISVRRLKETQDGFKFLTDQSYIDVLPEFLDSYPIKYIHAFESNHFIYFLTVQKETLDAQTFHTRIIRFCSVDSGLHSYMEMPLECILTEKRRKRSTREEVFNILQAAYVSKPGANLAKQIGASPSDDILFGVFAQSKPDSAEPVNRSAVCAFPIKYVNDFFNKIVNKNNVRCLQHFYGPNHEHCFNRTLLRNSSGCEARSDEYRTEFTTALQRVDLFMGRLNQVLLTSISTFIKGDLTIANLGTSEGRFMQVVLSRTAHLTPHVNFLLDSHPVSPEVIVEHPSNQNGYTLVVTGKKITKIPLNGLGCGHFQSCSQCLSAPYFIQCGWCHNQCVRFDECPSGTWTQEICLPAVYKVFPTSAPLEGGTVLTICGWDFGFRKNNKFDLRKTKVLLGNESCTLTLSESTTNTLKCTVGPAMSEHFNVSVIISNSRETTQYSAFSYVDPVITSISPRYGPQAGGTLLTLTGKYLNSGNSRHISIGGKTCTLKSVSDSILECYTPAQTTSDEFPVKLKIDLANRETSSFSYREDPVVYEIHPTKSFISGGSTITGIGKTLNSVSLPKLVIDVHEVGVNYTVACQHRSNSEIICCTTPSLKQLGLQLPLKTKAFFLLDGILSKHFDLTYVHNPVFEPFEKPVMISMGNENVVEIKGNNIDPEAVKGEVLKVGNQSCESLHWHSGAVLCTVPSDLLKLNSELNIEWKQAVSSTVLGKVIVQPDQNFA

absorption at 450 nm [1]: 0.113
absorption at 450 nm [2]: 0.373
Molecule: 5D5 (Genentech), monoclonal antibody against human c-Met

Kd [3]: 4 nM
koff [4]: 0.00155 s⁻¹
kon [4]: 385000 M⁻¹ s⁻¹
B1: monoclonal antibody AbF46 (antibody, IgG1, V domains shown)
VH: EVKLVESGGGLVQPGGSLRLSCATSGFTFTDYYMSWVRQPPGKALEWLGFIRNKANGYTTEYSASVKGRFTISRDNSQSILYLQMDTLRAEDSATYYCARDNWFAYWGQGTLVTVSA
VL: DILMTQSPSSLTVSAGEKVTMSCKSSQSLLASGNQNNYLAWHQQKPGRSPKMLIIWASTRVSGVPDRFIGSGSGTDFTLTINSVQAEDLAVYYCQQSYSAPLTFGAGTKLELKR
notes: also called SAIT-MET-AbF46 (hybridoma cell line); antibody of hybridoma KCLRF-BP-00220
